Assay results from patent publication US20140289906A1, “Compositions Having Dicamba Decarboxylase Activity and Methods of Use” (priority 2013, published 2014).

Experiment: 14C assay: 14CO2 capture from [14C]-carboxyl-labeled dicamba with IPTG-induced recombinant E. coli cells
Settings: for Dicamba Decarboxylase Activity: IPTG-induced recombinant E. coli cells, 14CO2 from [14C]-carboxyl-labeled dicamba; for Enzymatic Detection level: dicamba decarboxylation activity

B1: 76 (protein, listed as Polymorphum gilvum)
chain: MAKKIDIFNHIWPEPFFKALIAHIGEMTDITMRSGAVPMMTNLDRRFEVMDMFGPDYMQVLSLASPPLEKLADPAKALELSRIGSDSLAELCQRYPERFPAFIGTAPLSNPAAVVGECRRAIEDLGAAGMQIFTNVAGKPLDLAEFEPFFEYMASAGKPVWLHPARGEAFADYQTEKRSEYEIWWTFGWPYETSAAMARLVFSRMFDKYPGLKVITHHAGGMVPFFEGRVGPGWDQMGARTTDRDLAAVRKALKRPHLDYFKEFYADTASFGSRKAIEHAIEFFGEDRVLFASDAPFDPEGGPMYIRETMRCIDSLDLTDAQRRKIYHGNATALLGLSL
- Dicamba Decarboxylase Activity: No
- Enzymatic Detection level: No

B2: 77 (protein)
chain: MALIDLHAHAPHPGYYNQHPHWGPFFERHEDGDVKLRVGDWILTLGSPERKALVRAGKGPTVEEYQARWADPKVRLAGMDAAGQNAQVVSVPSHCYMYWAEKEFSVPFATKVNDTFAEYCSAAPDRLMFWAHAALNAPEQAALELRRACTELGAKGLVAGGANFGGLEFDSPELDPVWKVLCDLDLPMFIHGYNQSVTWGKKANDDRYETTAIVGMQYDETRCFWNLVCGGVLDRFPGLKVYITHGGGYVPYQLGRLAQCNGNLDVAHNKKPVLEYLKNNFYFDVELHEVPMRQALIDIIGADRVLYGSNFGGSDAVRHDLTEGLRLSDDDLQKIRWKNACKLLHLDPAKIGEPAKKQAVSA
modifications: Burkholderia xenovorans
- Dicamba Decarboxylase Activity: No
- Enzymatic Detection level: No

B3: 78 (protein, listed as Marinobacter adhaerens)
chain: MALIDLHAHAPHPDYYDQHPHWGPAFELQSDGDIKLRVGHWVLSLGAPERKQALREAHARGETLDVQEYMAKWRDPEHRLASMDAAGQNAQVLSVPSHCYMYWAEPEFGVPFAKKVNDSLAEYCSAAPDRLMFWAHAPLNVPKEAAKEIRRACTELGAKGLVAGGSNFGGLEFDSPEMDPVWEALCDLDLPMFVHGYNQSVTWGEEANTDRYETTAIVGMNYDESKCFWYMINGGVFDRFPNLKVYITHGGGFVPYQLGRMAQTNPNLDTYHNKKPFLEYLKNFYFDVELHEVPMRQAMVEVIGADRVLYGSNFGGSDAVRHDLTDDLKLSQEDLDKIRWKNACDLLHLDPNKLGKVRG
- Dicamba Decarboxylase Activity: Low
- Enzymatic Detection level: Low

B4: 6 (protein)
chain: MAEILSPEESIYYSKLSNDILAEGIKKNPTRFRGFAALPTPDPIQAAMELERCIKLGGFVGAIINGHINGHYLDEIQFDPILEAADALDVPLYIHPAVPPKAIIDTYYKMNDTYAQTVMVSGGWGWHIETGVHVLRLISSGVFDRHPNLKIVIGHLGEGLPFFMHRLNNAIGGNLKKSYSTYLKENIYYTISGFNDPDLFQFVLKKVGENNIMFSSDYPFNFPKREVELFNELNISEEVREKISFKNAERILKI
modifications: Treponema brennaborense
- Dicamba Decarboxylase Activity: No
- Enzymatic Detection level: No

B5: 80 (protein, listed as Cordyceps militaris)
chain: MAAASTPVVVDIHTHMYPPSYIAMLEKRQTIPLVRTFPQADEPRLILLSSELAALDAALADPAAKLPGRPLSTHFASLAQKMHFMDTNGIRVSVISLANPWFDFLAPDEAPGIADAVNAEFSDMCAQHVGRLFFFAALPLSAPVDAVKASIERVKNLKYCRGIILGTSGLGKGLDDPHLLPVFEAVADAKLLVFLHPHYGLPNEVYGPRSEEYGHVLPLALGFPMETTIAVARMYMAGVFDHVRNLQMLLAHSGGTLPFLAGRIESCIVHDGHLVKTGKVPKDRRTIWTVLKEQIYLDAVIYSEVGLQAAIASSGADRLMFGTDHPFFPPIEEDVQGPWDSSRLNAQAVIKAVGEGSSDAAAVMGLNAVRVLSLKAE
- Dicamba Decarboxylase Activity: Low
- Enzymatic Detection level: Low

B6: 82 (protein, listed as Rhodopseudomonas palustris)
chain: MAQNETPVIAIEEHYWDPEMVARFPAGENASPFSTLLTELGDVRLRAMDEAGIDVQVLSHGAPAAQKLPPDVAPELTRRVNDRLAEACARFPNRFAAFAALPTPAPEAAARELERCVRDLGFKGAMIHGLTNGLFIDDKRFWPIFEVAEKLDVPIYLHPSVPHADVTRYYYDDYAREFPTVIRPAWGFTVETATQAIRLILSRALESYPRLQIILGHLGETLPFLLWRINQALARPGQTPLDFRKQFCDHFHVTTSGFFSTPALICTMLELGIDRIMFAVDYPYVVNRDGTDWVQQLQISPDDKRKLVGGNARRLLKL
- Dicamba Decarboxylase Activity: Low
- Enzymatic Detection level: Low

B7: 83 (protein, listed as Mycobacterium rhodesiae)
chain: MALIALEEHYAWSPVSAGNVVGSWLETHNVTAYQRLYDRGPLRLEQMDAAGIDFQILSLFDPGVQDDDDTARAVENARRANDDLAETVRAAPDRFGGFATLAPQDPDAAAAELERAVGELGLVGGLINGHTHGRYLDDPAYLGLFECAQRLGVPIYLHPTTPHPAVMDAWFAPYVKDGLHLASWGFAAETGTHALRLIYSGLFDTFPRLQMILGHLGEMLPYAAYRIDRYYGLGGGDDGGRLARLPSEYLRDNFHVTTSGNFNPVAFACALDVMGPDRLMFSVDYPMDDNVTGAEFLRNLEVDDDVRRKVAGENALQLFGDKIPRR
- Dicamba Decarboxylase Activity: Low
- Enzymatic Detection level: Low

B8: 84 (protein, listed as Mycobacterium rhodesiae)
chain: MASLIALEEHYAWDPASEGNVVATWLRANNGVAYDRLYDRGPLRIEQMDAAGIDFQILSLFDPGVQDEVDAVRAVDLARRANDDLAESVRANPSRFGGFATLATQQPDAAVAEFDRAVTELGLVGGLINGHCQGRYLDDPAYEALFSRAEALGAPIYLHPTTPHPAVMDAWFAPYVGDGLHLASWGFAAETGTHVLRLIYSGLFDKFPRLQMIIGHLGEMLPFAAYRIDRYYGLGGGGTGHTLQHLPSDYLRNNFHVTTSGNFCSPALDCTLDVMGADRVMFSVDYPMDDNQTGADFLASYPMDDTNRRKVASENALRLFGDRIPAALRN
- Dicamba Decarboxylase Activity: Low
- Enzymatic Detection level: Low

B9: 85 (protein, listed as Maritimibacter alkaliphilus)
chain: MAADRKPGLVSVEEGFMIPEVVAELSRIAGGVPSMKSGPIAGPFMDDLLDIGKGRVARMDADGVAVQILALAAPGVQKFDPDTALALSRLTNDRLAEAIAAHPARFGGLAAAPPQAAREGAKELDRAITTLGLNGLIVNSHTNDLYLDDPSFWPLLEAAEALDVPVYLHPREPAAGIEGGLMAMTGFTVGWAYAVETGTHLLRMIAAGVFDRFPRLRIVLGHLGEMIPFMLDRIDNRYPFEMGVTGAKPLPRKPSDYFRDHVTVATSGMNFNAPMRAAIEVLGADKVMFAADYPMERQDEEVAKFAALDLTPDERKRIGEDNARRVFGL
- Dicamba Decarboxylase Activity: Low
- Enzymatic Detection level: Low

B10: 86 (protein, listed as Sphingopyxis alaskensis)
chain: MALGASVASREASAQMAKAPMRKIATEEAFATPELAKAWLEIARSEPNSSLDIPTGILSIFDNPRPGSNQDRFRRQLLDVDAERIRDMDEAGVDMQLLSVTIPGVQIFEPARAGELAVTTNDHLAAAIARRPTRFAGLACFAPHDPVQATREMERAVNALGLKGFIVNSHTQDLYLDDPRFAPVLEAAQSLDCPIYLHPRAPSNGMAAPFRDYSMGGSIWGFGVEAGTHAVRMILSGVFDRYPRLRIVLGHMGEALPFWMWRLDHMAARRAKDGRMKPLSLAPSEYFKRNFAVTTSGFESPDVLDLVIKVAGIENIMWAIDYPYESSRDAVTFIEGADLTASQRASIFHRNAVRHFRLS
- Dicamba Decarboxylase Activity: Low
- Enzymatic Detection level: Low

B11: 90 (protein)
chain: MAATIDRVLYLGNATQRRYTSATVSVPRIFGKVALEEHVGTSIWAKYNLTPPANAVVGVLNRPPTLPNTLDTIARLDDINGRLSSMNHSGIGYVIVSLSSPGIQGVHDTALAIKFSTDINDELYLKYANAYPDKFAFFATVPMQDPVAAASELERAVSLLGAKGAAINGYTDIGPPGNSTTRYLDDPINAPFWSKVAALNVPIYLHPRAPPPSQQLVYNYPNNSLSAYPGLVTGGFAYGAETAVHALRLMLSGLFDTHPNIQIILGHAAEGLPFLIHRSDTQLAAEVPGTNGPYKRPLRYYLRNNFYATLSGVRRLSTTQCTLAEMGEERVLFSVDYPFQSNEDAADWFDGVEGMSVETKRKVARGNARRLFNLTVDLDERQIDGDFM
modifications: Pyrenophora tritici-repentis
- Dicamba Decarboxylase Activity: Low
- Enzymatic Detection level: Low

B12: 91 (protein, listed as Botryotinia fuckeliana)
chain: MASFVCNFGKAALATLLLTPSISAADYTPQETVLNSGRPTFYDASTSIPGKIALEEHVGNDLLNGLYTVPYYPNTNEPQYSDSVYIADVGEKMLDIPSRIANMDAANISISVLTFGGPGIQGVFNATYATYAAGYVNDYLYKNYKNNANYTGRFEFWCSNALQEPSKAATELERCVKELGGVGSFVGGYTNNGGINGTANDIVYLDDPSMEPFLEKVVELDVPIYLHPRMPAPSQLLSVKGYEFLGSSPWGFSSETGAHALRLMVSGTLDKYPTLKIVLGHCGEGLPFFLPRIDQRLRHFKKELFNNTLTMEEYWLRNFYVTTAGVQDAGTLVDTIKRTGEDRVMFSVDYPFEDTVEIAGWFDRLEMNTLTKTKLAYENAKALLKLTCYVDAEKRPRIFNKHHVDDIIKHTHSPCIWTLFH
- Dicamba Decarboxylase Activity: Low
- Enzymatic Detection level: Low

B13: 7 (protein, listed as Legionella pneumophila)
chain: MAIVDFETHFITEACIDYLTQRQEVPKLVPELNGAYTMCFTPDVSLFHTSALMEELLSLNEQRLAIMDQAGVTIQVLSLTTINGIDSCPGDENKSTALAREVNDQLYSAIQRHPERFKGFASISPYDVKEGVKELERAISQLGFVGWLTHSNFGEDNYLDDKTYWPLLEAAEGLNIPIYLHPNVPIMREFGKYGFALGGSALGFEFDTALCLMRMILGGVFDAFPKLKIMLGHLGETMPFLMERLDHLYRIPDLKAYRPSIQRIPSEVLRQNVYITTSGRFFVPALRYVLEVMGEDRVLFASDYPMESLLDATRFIQDSDLSNQTKQKIFSINAKNLNLI
- Dicamba Decarboxylase Activity: No
- Enzymatic Detection level: No

B14: 93 (protein, listed as Mucilaginibacter paludis)
chain: MAKYGKHITINKNMRIVTLEEHISFPEMADQIPKAALGSFGRSEAMQRIAPKLADITGERLKSMDANGISMQVLSVDSSGVNLLSPQQGPAFATQYNDLIANRIAGFEKRFTAFAHLPMTAPFAAADELERAVKEHHFCGAMIRGLTGDQFLDHPQFAPIFERAQKLDVPIYLHPGLPPKGVADIYYSGLPNYSGMAEALACYGWGWHSETALHVLRLLFSGIFDQYPKLKLVIGHMGEMLPMMMARSEKAFKPGNGGANVRTLTDTFRSQVYLTTSGFFTQPPLKIALDTFGIDHVMFSVDYPFSTNEMGIEFLNEIDLPDEEVARIAHGNADKLLNLKA
- Dicamba Decarboxylase Activity: Low
- Enzymatic Detection level: Low

B15: 94 (protein, listed as Bacillus thuringiensis)
chain: MANRGDSNMKSLVGVIMGSTSDWETMKYACDILDELNIPYEKKVVSAHRTPDYMFEYAETARERGLKVIIAGAGGAAHLPGMVAAKTNLPVIGVPVQSKALNGLDSLLSIVQMPGGVPVATVAIGKAGSTNAGLLAAQILGSFHDDIHDALELRREAIEKDVREGSELV
- Dicamba Decarboxylase Activity: No
- Enzymatic Detection level: No
